Experimental data as given in US20200179430A1, “USE OF P2Y1 RECEPTOR AND ANTAGONIST THEREOF IN PREVENTION AND TREATMENT OF DEPRESSION AND/OR ANXIETY DISORDER” (SOUTHERN MEDICAL UNIVERSITY, priority 2017, published 2020).
“Also recorded” adds a separate entry of the source.

What was measured:
[1] = molecular target: T1, P2Y1 receptor (Mus musculus, UniProt P49650); assay: Forced swimming test (FST) in C57BL/6J mice; assay type: in vivo; conditions: for anti-depression like behavior (immobility time of swimming within the last 4 minutes): MRS2500 2.5 mg/kg intraperitoneally, FST 30 minutes later, 6 minutes; for immobility time of swimming: lateral ventricle administration, MRS2500 0.1 μM, MRS2179 0.2 μM, 1 μL, vs artificial cerebrospinal fluid control, FIG. 2; for immobility time during the forced swimming test: 0.5 μL shRNA adeno-associated virus at ventral tegmental area, 14 days after injection, vs control virus
T1 construct: from tissue; host or cells: living C57BL/6J mice; brain (lateral ventricle administration, ventral tegmental area) or systemic (intraperitoneal)
Description: Forced swimming test which was proposed by Porsolt in 1977 was applied to the rats at the earliest, and subsequently extended to the mice. The forced swimming test is used to screening for antidepressants which are found to decrease immobility time of the forced swimming mice, and such model is one of the most common-used models for screening for antidepressants at present. The test steps are as follows: experimental mice adapted in an ethology laboratory for at least 60 minutes in advance, and the following test was carried out: an individual mouse was put in a cylinder glass jar (height: 45 cm; diameter: 19 cm) with a water depth of 23 cm at water temperature of 22° C.-25° C., and was subjected to the forced swimming for 6 minutes. Accumulative immobility time within the last 4 minutes was recorded (mainly behaves as stopping struggling, floating upright, or having only small limb movements to keep the head emerge from the water) as an index of tested depression-like behavior. Effect of the antidepressant can shorten the immobility time of the experimental mice.
Experimental animals: C57BL/6J mice, grade SPF, male, body weight of 20 to 24 g. The animals were provided by the Laboratory Animal Center of Southern Medical University (Guangzhou, China). The mice were put in the SPF grade animal feeding room for feeding in separate cages, with 3 to 4 mice in each cage. The plastic cage has a size of 300 mm×170 mm×120 mm. Room temperature: 24±1° C., light-dark cycle: 12 hours/12 hours, illumination time: 7:00 a.m. to 7:00 p.m., relative humidity: 70% to 85%. The indoor environment was kept quiet and the mice could eat and drink freely. The tests were carried out at 1:00 to 5:00 in the afternoon. Before the test, the mice entered the experimental environment in advance for adaptation and were touched by the experimental personnel for adaptation.
In the forced swimming test of the C57BL/6J mice, the animals were divided into 5 groups randomly with 10 mice in each group. The animals in each group were surgically implanted with a medical perfusion tube at the lateral ventricle and fed for seven days for recovery. Then, four groups of animals were subjected to the following treatment respectively: by using a microdose drug delivery system, administering the corresponding reagent: a control solution (artificial cerebrospinal fluid, 1 μL, 1 μL/min), MRS2500 (0.1 μM, 1 μL, 1 μL/min), MRS2179 (0.2 μM, 1 μL, 1 μL/min). After the injection for each group was completed, the forced swimming test was carried out 10 minutes later.
2.5 mg/kg MRS2500 was intraperitoneally administered to the mice, and 30 minutes later, the mice were subjected to the forced swimming test for 6 minutes. Immobility time of swimming within the last 4 minutes was determined to evaluate the effect of the antidepressant.
Test method: the animal in each group was micro-injected with 0.5 μL of interfering RNA adeno-associated virus (shRNA) at the ventral tegmental area (angle: 7°, AP: −3.2 mm, ML: 1.0 mm, DV: −4.6 mm) (0.1 μL/min, remaining the needle for 5 minutes after injection), fed for 14 days and subjected to a forced swimming test after the expression recovery of virus. Titer of the P2Y1 specific-interfering shRNA is 1×10^13 v.g/ml, 9.55E+08 copy/μL. Adeno-associated virus type 9 was used to package the virus, with the promoter being U6 and the serotype being AAV9 (packaged by Biowit Company, Shenzhen, China). Sequence information: the forward sequence is shown as SEQ ID NO:1; and the reverse sequence is shown as SEQ ID NO:2.

[2] = molecular target: T1, P2Y1 receptor; assay: Chronic social defeat stress model, social interaction test; assay type: in vivo, mice; conditions: for duration at the interaction area, social interaction test: chronic social defeat stress depressed mice, 14 days after injection of shRNA virus, FIG. 9
Description: The chronic social defeat stress model was carried out referring to the Golden method.
The C57BL/6J mice were randomly divided into a control group and a stress group. The C57BL/6J mouse in the stress group was daily put in a cage with a screened CD-1 mouse therein, for 10-minute body contact. As an invader, the C57BL/6J mouse behaved as escape, fear, obedience and the like after being attacked. After the contact, within the 24 hours after they were separated by a transparent and perforate partition, the C57BL/6J mouse could smell, see and hear the CD-1 mouse at the opposite side for mental stress. The C57BL/6J mice took turns daily to guarantee to be subjected to even stress. The test was continued for ten days. The CD-1 mouse in the control group was replaced by another C57BL/6J mouse, and took turns daily, but body contact was avoided. After modeling, the mice were fed in separate cages and were subjected to tube-implant surgery at the lateral ventricle. The control group and the test group were administered the corresponding reagent respectively: a control solution (artificial cerebrospinal fluid, 1 μL, 1 μL/min), MRS2500 (0.1 μM, 1 μL, 1 μL/min). After administration, depression level of the mice was tested by a social interaction test. The social interaction test was divided into two stages, 2.5 minutes for each stage. First stage (no target): the CD-1 mouse was not put in a transparent and perforate organic glass box; the C57BL/6J mice were put at the distal side, and dwell durations thereof at the interaction area and at the corner within 2.5 minutes were recorded. Second stage (target): the CD-1 mouse was put in the transparent and perforate organic glass box; the C57BL/6J mice were put at the distal side, and dwell durations thereof at the interaction area and at the corner within 2.5 minutes were recorded.
Experimental animals: C57BL/6J mice, grade SPF, male, body weight of 20 to 24 g. The animals were provided by the Laboratory Animal Center of Southern Medical University (Guangzhou, China). […]

[3] = molecular target: T1, P2Y1 receptor; assay: Forced swimming test of mice modeled by chronic social defeat stress model; assay type: in vivo; conditions: chronic social defeat stress depressed mice, 14 days after injection of shRNA virus, FIG. 10
Description: Forced swimming test which was proposed by Porsolt in 1977 was applied to the rats at the earliest, and subsequently extended to the mice. The forced swimming test is used to screening for antidepressants which are found to decrease immobility time of the forced swimming mice, and such model is one of the most common-used models for screening for antidepressants at present. […] Accumulative immobility time within the last 4 minutes was recorded (mainly behaves as stopping struggling, floating upright, or having only small limb movements to keep the head emerge from the water) as an index of tested depression-like behavior. […]
The C57BL/6J mice were randomly divided into a control group and a stress group. […] First stage (no target): the CD-1 mouse was not put in a transparent and perforate organic glass box; the C57BL/6J mice were put at the distal side, and dwell durations thereof at the interaction area and at the corner within 2.5 minutes were recorded. Second stage (target): the CD-1 mouse was put in the transparent and perforate organic glass box; the C57BL/6J mice were put at the distal side, and dwell durations thereof at the interaction area and at the corner within 2.5 minutes were recorded. […]

[4] = molecular target: T1, P2Y1 receptor; assay: Sucrose preference test of mice modeled by chronic social defeat stress model; assay type: in vivo; conditions: chronic social defeat stress depressed mice; 14 days after injection of shRNA virus; FIG. 11
[5] = test system: P2Y1 receptor; assay: Expression of P2Y1 receptor after intracerebral injection of interfering RNA adeno-associated virus; assay type: in vivo; conditions: mice injected at ventral tegmental area; vs control group mice
Description: In order to further verify whether the P2Y1 receptor can be used as a target of anti-depression and/or anti-anxiety, and to avoid the compensatory effect that may exist in the conventional knockout mice, P2Y1 receptor specifically-interfering adeno-associated virus was prepared in the present invention to be observed whether the virus affects the depression-like behavior. The mice were intracerebrally injected with a trace amount of the P2Y1 receptor-interfering RNA adeno-associated virus at the ventral tegmental area, and then a forced swimming test was carried out. […] The inventors further used a depression model, chronic social defeat stress model to verify the effect of the P2Y1 receptor specifically-interfering adeno-associated virus. After modeling of the depression model was completed, the mice took a day off, and then were administered the P2Y1 receptor specifically-interfering adeno-associated virus, and two weeks later the mice were subjected to a behavior test. […] In the sucrose preference test, a decreased sucrose preference of the social failure depressed mice was reversed (as shown in FIG. 11). […]

[6] = listed as P2Y1 receptor specifically-interfering adeno-associated virus

T1 sequence (P49650 whole entry): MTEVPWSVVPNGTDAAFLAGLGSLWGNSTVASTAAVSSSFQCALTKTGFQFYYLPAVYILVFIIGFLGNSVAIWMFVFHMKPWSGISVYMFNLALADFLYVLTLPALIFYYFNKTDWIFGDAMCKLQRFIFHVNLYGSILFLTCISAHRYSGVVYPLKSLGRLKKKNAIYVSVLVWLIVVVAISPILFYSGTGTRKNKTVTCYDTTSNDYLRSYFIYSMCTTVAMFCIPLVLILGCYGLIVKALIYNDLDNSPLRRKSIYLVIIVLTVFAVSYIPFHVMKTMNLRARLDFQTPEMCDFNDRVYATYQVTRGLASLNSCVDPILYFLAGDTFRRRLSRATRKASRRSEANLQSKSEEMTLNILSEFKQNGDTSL

CNCCC(Oc1ccc(C(F)(F)F)cc1)c1ccccc1 (stereo not shown) [Fluoxetine]
anti-depression like behavior (immobility time of swimming within the last 4 minutes) ([1]; FIG. 1): anti-depression like behavior

CNc1ncnc2c1ncn2[C@H]1C[C@H](OP(=O)(O)O)[C@@H](COP(=O)(O)O)O1 [MRS2179]
immobility time of swimming [1]: significantly reduce the immobility time; also recorded: significantly shorten the immobility time of swimming

CNc1nc(I)nc2c1ncn2[C@H]1C[C@H](OP(=O)(O)O)[C@]2(COP(=O)(O)O)C[C@H]12 [MRS2500]
anti-depression like behavior (immobility time of swimming within the last 4 minutes) ([1]; FIG. 1, 2.5 mg/kg): shows the same anti-depression like behavior as administration of the conventional antidepressant Fluoxetine
immobility time of swimming [1]: significantly reduce the immobility time; also recorded: significantly shorten the immobility time of swimming
dwell duration at the interaction area (depressive situation) ([2]; chronic social defeat stress C57BL/6J mice, single dose MRS2500 0.1 μM, 1 μL, lateral ventricle, FIG. 3): significantly improved; also recorded: can improve the dwell duration at the interaction area

B1: P2Y1-shRNA: P2Y1 specific-interfering shRNA packaged in adeno-associated virus type 9, U6 promoter; sequences SEQ ID NO:1 and SEQ ID NO:2 (nucleic acid)
chain 1: GATCCCCAGCCCTCATCTTCTACTACTTCATTCAAGAGATGAAGTAGTAGAAGATGAGGGCTGGTTTTTTAGATCTA
chain 2: AGCTTAGATCTAAAAAACCAGCCCTCATCTTCTACTACTTCATCTCTTGAATGAAGTAGTAGAAGATGAGGGCTGGG
immobility time during the forced swimming test ([1]; FIG. 8): significantly reduced immobility time
immobility time during the forced swimming test ([1]; FIG. 8, listed as P2Y1 receptor-interfering RNA): obviously decreased immobility time
duration at the interaction area, social interaction test [2]: enhance the duration at the interaction area
duration at the interaction area, social interaction test [2, 6]: situation of the social defeat depressed mice was reversed
immobility time, forced swimming test [3]: reduce the increased immobility time
immobility time, forced swimming test [3, 6]: returned to the level of the control group
sucrose preference [4]: enhance the decreased sucrose preference
expression of P2Y1 receptor [5]: significantly decreased the expression of P2Y1 receptor
